# Test results reported in PMC5053157, “Crystal structure of yeast monothiol glutaredoxin Grx6 in complex with a glutathione-coordinated [2Fe–2S] cluster” (Acta Crystallographica. Section F, Structural Biology …, 2016).
# Values joined by “and” are separate entries in the source; they are usually repeats but may differ in a detail not shown here. Identical values can stand only once.
# Target: the molecule itself
# Test: SEC; HiLoad 16/60 Superdex 75; 20 mM NaCl, 50 mM Tris-HCl pH 8.0, 2 mM EDTA, 10 mM GSH; apparent molecular masses
protein,measurement,value
Saccharomyces cerevisiae glutaredoxin Grx6 without the signal peptide (residues Lys37-Asn231) (enzyme) KEETSKAFSTNMDNMAGGSSREYAAMPTSTTNKGSSEVDEEINEIKQKVGLQQPIASVDDSLSAIKNDKGSRITKAFNVQKEYSLILDLSPIIIFSKSTCSYSKGMKELLENEYQFIPNYYIIELDKHGHGEELQEYIKLVTGRGTVPNLLVNGVSRGGNEEIKKLHTQGKLLESLQVWSDGKFSVEQREKPSNNLEHHHHHH,stoichiometry N,2 and 4
